According to paper PMC9663165, “Human immunomodulatory ligand B7-1 mediates synaptic remodeling via the p75 neurotrophin receptor” (The Journal of Clinical Investigation, 2022):

Key:
CD28-GFP = molecular target: T1, CD28-GFP (human, UniProt P10747 19-220); assay: flow cytometry on cells; cell-cell conjugates: HEK293F cells expressing 92 B7-1–mCherry point mutants (IgV domain) against HEK293F cells expressing CTLA-4–GFP, CD28-GFP or p75NTR-GFP; percent of WT binding; settings: partners not purified
T1 construct: human CD28, member of the human Ig superfamily library; source: HEK293F, transfected, on cells; not shown: GFP, C-terminal, kept

[1] = molecular target: T2, full-length human p75 neurotrophin receptor fused at the cytoplasmic C-terminus to GFP (human, UniProt P08138 29-427); assay: as above; settings: partners not purified
T2 construct: As query against the GFP-tagged library it carried the opposite colour tag (mCherry); kept as one molecule; also called p75^NTR; NGFR; source: HEK293 suspension cells, transiently transfected, on cells; not shown: GFP, C-terminal, kept
T2 sequence (looked up): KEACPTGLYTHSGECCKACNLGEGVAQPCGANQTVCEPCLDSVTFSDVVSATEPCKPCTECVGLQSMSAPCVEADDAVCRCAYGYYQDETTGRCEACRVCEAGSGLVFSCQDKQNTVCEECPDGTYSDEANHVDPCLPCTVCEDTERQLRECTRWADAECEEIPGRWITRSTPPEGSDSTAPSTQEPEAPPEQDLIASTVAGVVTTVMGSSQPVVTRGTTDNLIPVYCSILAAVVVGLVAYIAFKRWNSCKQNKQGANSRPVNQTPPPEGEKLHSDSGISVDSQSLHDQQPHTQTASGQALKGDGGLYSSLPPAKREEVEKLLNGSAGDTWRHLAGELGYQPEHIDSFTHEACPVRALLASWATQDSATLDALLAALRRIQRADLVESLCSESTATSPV

| Binder | loss in binding relative to WT (CD28-GFP) | loss in binding relative to WT [1] |
| --- | --- | --- |
| hB7-1 E41A–mCherry (ligand, human, UniProt P33681 35-288, looked up, human B7-1 (CD80), point mutant in the IgV domain; source: HEK293F, transfected, on cells) VIHVTKAVKEVATLSCGHNVSVEELAQTRIYWQKEKKMVLTMMSGDMNIWPEYKNRTIFDITNNLSIVILALRPSDEGTYECVVLKYEKDAFKREHLAEVTLSVKADFPTPSISDFEIPTSNIRRIICSTSGGFPEPHLSWLENGEELNAINTTVSQDPETELYAVSSKLDFNMTTNHSFMCLIKYGHLRVNQTFNWNTTKQEHFPDNLLPSWAITLISVNGIFVICCLTYCFAPRCRERRRNERLRRESVRPV | > 25% | – |
| hB7-1 T39A–mCherry (ligand, human, UniProt P33681 35-288, looked up, human B7-1 (CD80), point mutant in the IgV domain; source: HEK293F, transfected, on cells) VIHVAKEVKEVATLSCGHNVSVEELAQTRIYWQKEKKMVLTMMSGDMNIWPEYKNRTIFDITNNLSIVILALRPSDEGTYECVVLKYEKDAFKREHLAEVTLSVKADFPTPSISDFEIPTSNIRRIICSTSGGFPEPHLSWLENGEELNAINTTVSQDPETELYAVSSKLDFNMTTNHSFMCLIKYGHLRVNQTFNWNTTKQEHFPDNLLPSWAITLISVNGIFVICCLTYCFAPRCRERRRNERLRRESVRPV | > 25% | > 25% |
| hB7-1 V45D–mCherry (ligand, human, UniProt P33681 35-288, looked up, human B7-1 (CD80), point mutant in the IgV domain; source: HEK293F, transfected, on cells) VIHVTKEVKEDATLSCGHNVSVEELAQTRIYWQKEKKMVLTMMSGDMNIWPEYKNRTIFDITNNLSIVILALRPSDEGTYECVVLKYEKDAFKREHLAEVTLSVKADFPTPSISDFEIPTSNIRRIICSTSGGFPEPHLSWLENGEELNAINTTVSQDPETELYAVSSKLDFNMTTNHSFMCLIKYGHLRVNQTFNWNTTKQEHFPDNLLPSWAITLISVNGIFVICCLTYCFAPRCRERRRNERLRRESVRPV | > 25% | – |
| hB7-1 I36A–mCherry (ligand, human, UniProt P33681 35-288, looked up, human B7-1 (CD80), point mutant in the IgV domain; source: HEK293F, transfected, on cells) VAHVTKEVKEVATLSCGHNVSVEELAQTRIYWQKEKKMVLTMMSGDMNIWPEYKNRTIFDITNNLSIVILALRPSDEGTYECVVLKYEKDAFKREHLAEVTLSVKADFPTPSISDFEIPTSNIRRIICSTSGGFPEPHLSWLENGEELNAINTTVSQDPETELYAVSSKLDFNMTTNHSFMCLIKYGHLRVNQTFNWNTTKQEHFPDNLLPSWAITLISVNGIFVICCLTYCFAPRCRERRRNERLRRESVRPV | > 25% | – |
| hB7-1 I36D–mCherry (ligand, human, UniProt P33681 35-288, looked up, human B7-1 (CD80), point mutant in the IgV domain; source: HEK293F, transfected, on cells) VDHVTKEVKEVATLSCGHNVSVEELAQTRIYWQKEKKMVLTMMSGDMNIWPEYKNRTIFDITNNLSIVILALRPSDEGTYECVVLKYEKDAFKREHLAEVTLSVKADFPTPSISDFEIPTSNIRRIICSTSGGFPEPHLSWLENGEELNAINTTVSQDPETELYAVSSKLDFNMTTNHSFMCLIKYGHLRVNQTFNWNTTKQEHFPDNLLPSWAITLISVNGIFVICCLTYCFAPRCRERRRNERLRRESVRPV | > 25% | > 25% |
| hB7-1 S49A–mCherry (ligand, human, UniProt P33681 35-288, looked up, human B7-1 (CD80), point mutant in the IgV domain; source: HEK293F, transfected, on cells) VIHVTKEVKEVATLACGHNVSVEELAQTRIYWQKEKKMVLTMMSGDMNIWPEYKNRTIFDITNNLSIVILALRPSDEGTYECVVLKYEKDAFKREHLAEVTLSVKADFPTPSISDFEIPTSNIRRIICSTSGGFPEPHLSWLENGEELNAINTTVSQDPETELYAVSSKLDFNMTTNHSFMCLIKYGHLRVNQTFNWNTTKQEHFPDNLLPSWAITLISVNGIFVICCLTYCFAPRCRERRRNERLRRESVRPV | > 25% | > 25% |
| hB7-1 K139D–mCherry (ligand, human, UniProt P33681 35-288, looked up, human B7-1 (CD80), point mutant in the IgV domain; source: HEK293F, transfected, on cells) VIHVTKEVKEVATLSCGHNVSVEELAQTRIYWQKEKKMVLTMMSGDMNIWPEYKNRTIFDITNNLSIVILALRPSDEGTYECVVLKYEKDAFKREHLAEVTLSVDADFPTPSISDFEIPTSNIRRIICSTSGGFPEPHLSWLENGEELNAINTTVSQDPETELYAVSSKLDFNMTTNHSFMCLIKYGHLRVNQTFNWNTTKQEHFPDNLLPSWAITLISVNGIFVICCLTYCFAPRCRERRRNERLRRESVRPV | > 25% | – |
| hB7-1 Y121D–mCherry (ligand, human, UniProt P33681 35-288, looked up, human B7-1 (CD80), point mutant in the IgV domain; source: HEK293F, transfected, on cells) VIHVTKEVKEVATLSCGHNVSVEELAQTRIYWQKEKKMVLTMMSGDMNIWPEYKNRTIFDITNNLSIVILALRPSDEGTYECVVLKDEKDAFKREHLAEVTLSVKADFPTPSISDFEIPTSNIRRIICSTSGGFPEPHLSWLENGEELNAINTTVSQDPETELYAVSSKLDFNMTTNHSFMCLIKYGHLRVNQTFNWNTTKQEHFPDNLLPSWAITLISVNGIFVICCLTYCFAPRCRERRRNERLRRESVRPV | – | > 25% |
| hB7-1 R63D–mCherry (ligand, human, UniProt P33681 35-288, looked up, human B7-1 (CD80), point mutant in the IgV domain; source: HEK293F, transfected, on cells) VIHVTKEVKEVATLSCGHNVSVEELAQTDIYWQKEKKMVLTMMSGDMNIWPEYKNRTIFDITNNLSIVILALRPSDEGTYECVVLKYEKDAFKREHLAEVTLSVKADFPTPSISDFEIPTSNIRRIICSTSGGFPEPHLSWLENGEELNAINTTVSQDPETELYAVSSKLDFNMTTNHSFMCLIKYGHLRVNQTFNWNTTKQEHFPDNLLPSWAITLISVNGIFVICCLTYCFAPRCRERRRNERLRRESVRPV | > 25% | – |
| hB7-1 Y65A–mCherry (ligand, human, UniProt P33681 35-288, looked up, human B7-1 (CD80), point mutant in the IgV domain; source: HEK293F, transfected, on cells) VIHVTKEVKEVATLSCGHNVSVEELAQTRIAWQKEKKMVLTMMSGDMNIWPEYKNRTIFDITNNLSIVILALRPSDEGTYECVVLKYEKDAFKREHLAEVTLSVKADFPTPSISDFEIPTSNIRRIICSTSGGFPEPHLSWLENGEELNAINTTVSQDPETELYAVSSKLDFNMTTNHSFMCLIKYGHLRVNQTFNWNTTKQEHFPDNLLPSWAITLISVNGIFVICCLTYCFAPRCRERRRNERLRRESVRPV | > 25% | > 25% |
| hB7-1 E69A–mCherry (ligand, human, UniProt P33681 35-288, looked up, human B7-1 (CD80), point mutant in the IgV domain; source: HEK293F, transfected, on cells) VIHVTKEVKEVATLSCGHNVSVEELAQTRIYWQKAKKMVLTMMSGDMNIWPEYKNRTIFDITNNLSIVILALRPSDEGTYECVVLKYEKDAFKREHLAEVTLSVKADFPTPSISDFEIPTSNIRRIICSTSGGFPEPHLSWLENGEELNAINTTVSQDPETELYAVSSKLDFNMTTNHSFMCLIKYGHLRVNQTFNWNTTKQEHFPDNLLPSWAITLISVNGIFVICCLTYCFAPRCRERRRNERLRRESVRPV | > 25% | – |
| hB7-1 L131D–mCherry (ligand, human, UniProt P33681 35-288, looked up, human B7-1 (CD80), point mutant in the IgV domain; source: HEK293F, transfected, on cells) VIHVTKEVKEVATLSCGHNVSVEELAQTRIYWQKEKKMVLTMMSGDMNIWPEYKNRTIFDITNNLSIVILALRPSDEGTYECVVLKYEKDAFKREHDAEVTLSVKADFPTPSISDFEIPTSNIRRIICSTSGGFPEPHLSWLENGEELNAINTTVSQDPETELYAVSSKLDFNMTTNHSFMCLIKYGHLRVNQTFNWNTTKQEHFPDNLLPSWAITLISVNGIFVICCLTYCFAPRCRERRRNERLRRESVRPV | > 25% | – |
| hB7-1 K120D–mCherry (ligand, human, UniProt P33681 35-288, looked up, human B7-1 (CD80), point mutant in the IgV domain; source: HEK293F, transfected, on cells) VIHVTKEVKEVATLSCGHNVSVEELAQTRIYWQKEKKMVLTMMSGDMNIWPEYKNRTIFDITNNLSIVILALRPSDEGTYECVVLDYEKDAFKREHLAEVTLSVKADFPTPSISDFEIPTSNIRRIICSTSGGFPEPHLSWLENGEELNAINTTVSQDPETELYAVSSKLDFNMTTNHSFMCLIKYGHLRVNQTFNWNTTKQEHFPDNLLPSWAITLISVNGIFVICCLTYCFAPRCRERRRNERLRRESVRPV | > 25% | – |
| hB7-1 K40D–mCherry (ligand, human, UniProt P33681 35-288, looked up, human B7-1 (CD80), point mutant in the IgV domain; printed once as K40D and once as Y40D; also called Y40D; source: HEK293F, transfected, on cells) VIHVTDEVKEVATLSCGHNVSVEELAQTRIYWQKEKKMVLTMMSGDMNIWPEYKNRTIFDITNNLSIVILALRPSDEGTYECVVLKYEKDAFKREHLAEVTLSVKADFPTPSISDFEIPTSNIRRIICSTSGGFPEPHLSWLENGEELNAINTTVSQDPETELYAVSSKLDFNMTTNHSFMCLIKYGHLRVNQTFNWNTTKQEHFPDNLLPSWAITLISVNGIFVICCLTYCFAPRCRERRRNERLRRESVRPV | > 25% | > 25% |
| hB7-1 K43D–mCherry (ligand, human, UniProt P33681 35-288, looked up, human B7-1 (CD80), point mutant in the IgV domain; source: HEK293F, transfected, on cells) VIHVTKEVDEVATLSCGHNVSVEELAQTRIYWQKEKKMVLTMMSGDMNIWPEYKNRTIFDITNNLSIVILALRPSDEGTYECVVLKYEKDAFKREHLAEVTLSVKADFPTPSISDFEIPTSNIRRIICSTSGGFPEPHLSWLENGEELNAINTTVSQDPETELYAVSSKLDFNMTTNHSFMCLIKYGHLRVNQTFNWNTTKQEHFPDNLLPSWAITLISVNGIFVICCLTYCFAPRCRERRRNERLRRESVRPV | > 25% | > 25% |
| hB7-1 K127D–mCherry (ligand, human, UniProt P33681 35-288, looked up, human B7-1 (CD80), point mutant in the IgV domain; source: HEK293F, transfected, on cells) VIHVTKEVKEVATLSCGHNVSVEELAQTRIYWQKEKKMVLTMMSGDMNIWPEYKNRTIFDITNNLSIVILALRPSDEGTYECVVLKYEKDAFDREHLAEVTLSVKADFPTPSISDFEIPTSNIRRIICSTSGGFPEPHLSWLENGEELNAINTTVSQDPETELYAVSSKLDFNMTTNHSFMCLIKYGHLRVNQTFNWNTTKQEHFPDNLLPSWAITLISVNGIFVICCLTYCFAPRCRERRRNERLRRESVRPV | > 25% | – |
